Data on 27 sequences can be found in the supplement of paper PMC9170038.

This data set concerns MS2 coat protein. The data set can be described thus: apparent KD of MS2 coat protein; higher = weaker reporter binding. The note with it: Eterna round: R107. The gist of the method: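 SNAP-549-labelled MS2 coat protein was titrated onto designed RNA switches that had been transcribed on-chip from Illumina sequencing clusters. Amounts doubled from 0.7 or 1.5 nM to 3 µM in 100 mM Tris-HCl pH 7.5, 80 mM KCl, 4 mM MgCl2, with constant ligand or without. Apparent KD is the median per design of normalised cluster binding-curve fits.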

[1] abbreviates: input ligand: theophylline 20 uM.
Setting [2] is: input ligand: theophylline 2 mM.
The mark [3] stands for this setting: input ligand: tryptophan 2.4 mM.

Take “GAUCAAAGAUCACAUGAGGAUCACCCAUGUCGAGGACCGGUACGGCCGCCACUCGCGGCGGUGAAAAUAGAUACAAAGUAUCUAU [Ex_TrypA - ViennaApproves]”: the “apparent KD of MS2 coat protein” value runs as follows: (input ligand: arginine 13.2 mM) 40.1 nM; under setting [1], 83.9 nM; under setting [2], 86.1 nM.
Regarding “AAGACGGUCGGAAGGAGCGGUACAUGAGGAUCACCCAUGUAUUCCUGGGCAUCCGUAGUGUGCCAGGUAGGUCGCCGAUUGCGGG [XArg-B13]”, the “apparent KD of MS2 coat protein” value is, setting by setting: (input ligand: arginine 13.2 mM) 40.3 nM; (input ligand: none) 37.9 nM; under setting [1], 91.7 nM; under setting [2], 97.2 nM; under setting [3], 40.9 nM.
For “ACUAGAGGUGGAAGGAGCGGGAGACAUGAGCAUCACAUGAGGAUCACCCAUGUAGGAUCAUCCCAGGUAGGUCGCCAUGUCGAAA [h.hgmullin]”, in that order: 88.4 nM, 363 nM, 290 nM, 218 nM and 173 nM.
For “GCACAAGAUGGAAGGAGCGCUGGAAAAGGUCACAUGAGGAUCACCCAUGUUCUCCUAACCGAGCAGGUAGGUCGCCAUCUUGUGC [SSAB NP+V+V2 #1]”, in that order: 24 nM, 23.7 nM, 25.6 nM, 29.8 nM and 25.9 nM.
The matching figures for “UAUCCACAUGAGGAUCACCCAUGUUAGGAAGGAGCGGUGAAUGAACCAGGUAGGUCGCCUAGCUGAGGACUGUCGAUGGAUUCGU [Exclusion - Arginine A (Freestyle 17)]”: 13.4 nM, 18.1 nM, 28.2 nM, 24.5 nM and 20.5 nM.
Turning to “CGAGUGCUGUCGGCCGCCACUGCACAUGAGGAUCACCCAUGUAAAAGCUGGCUGUGACUGGUGUUCAGGACCGGGACAGGGUCUU [Inriedzaan]”, the “apparent KD of MS2 coat protein” value is, setting by setting: (input ligand: arginine 13.2 mM) 10.9 nM; under setting [1], 13.8 nM; under setting [2], 11.7 nM.
“ACAUUAGUUGGCGAUACCAGCUAUAGGCCUUCUGGGCGACAUGAGGAUCACCCAUGUGAUGGCCCUUGGCAGCGCUGAUUGAUGU [SSTheo B #29]”: the “apparent KD of MS2 coat protein” value turned out to be 65.6 nM (input ligand: arginine 13.2 mM), 167 nM under setting [1] and 182 nM under setting [3].
As to “ACAUUGCGCACGGCCGCCACUGGCUAUAGAUUUAUAGCAUUAAUGAACAUGAGGAUCACCCAUGUCAGGACCGGGUGCGAACCAU [SSTryp B #9]”, the “apparent KD of MS2 coat protein” value (input ligand: arginine 13.2 mM) was 14 nM, the “apparent KD of MS2 coat protein” value under setting [1] was 22.7 nM and the “apparent KD of MS2 coat protein” value under setting [2] came to 27.6 nM.
“UGUCAUGGAAACAUGACUGGUUCUACCGGUCGAGGACCGGUACGGCCGCCACUCGGUUGGUGGCACAUGAGGAUCACCCAUGUUA [SS Tryp A #13]”: the “apparent KD of MS2 coat protein” value runs as follows: (input ligand: arginine 13.2 mM) 28.5 nM; (input ligand: none) 30.3 nM; under setting [1], 51.8 nM; under setting [2], 44.7 nM; under setting [3], 29.7 nM.
For “ACAUGAGGAUCACCCAUGUAAUCAUCAGAAGGAGCGUGGAAUAACACAGGUAGGUCGCUGAUGUUAUGUUAAAAUGGUUCGUGAA [JR_ExcArginiA_Sub002]”, in that order: 18.8 nM, 19.1 nM, 23.7 nM, 17.3 nM and 22.5 nM.
Consider “UCGUGUAUAUCGGAUACCAGUGAAAUCGAUACAUGAGGAUCACCCAUGUGAGAGGAUGUACACCCUUGGCAGCUGUAUAUAUCUG [ll,lmullin]”, for which the “apparent KD of MS2 coat protein” value was 18 nM (input ligand: arginine 13.2 mM), 25.1 nM under setting [1] and 20.4 nM under setting [3].
Regarding “AGCUCUGAUACGGCCGCCACUAGAUGGUGUUGUAAGAGACGCCUACAUGAGGAUCACCCAUGUCAUAGGACCGGGUAUAAAUACA [theeternabot_sameState_MS2_Trp_B_8]”, the “apparent KD of MS2 coat protein” value is, setting by setting: (input ligand: arginine 13.2 mM) 27.8 nM; (input ligand: none) 26.4 nM; under setting [1], 30.7 nM; under setting [2], 46.4 nM; under setting [3], 18.2 nM.
For “AUAACAUGAGGAUCACCCAUGUAAGCAGAUACCAGCUAGGAAACUAGCCCUUGGCAGCUGCAAGGUGAUCCUGCUGCCAAGGUAU [(M1)-(M2)-(T1)-(T2)-(M)'-(T)'_Design7]”, in that order: 117 nM, 233 nM, 187 nM, 130 nM and 209 nM.
In the case of “GGUGGCGUGACGGAUACCAGCCACCACCGCAAGACCACAUGAGGAUCACCCAUGUUGGGUGGCCCUUGGCAGCUGUCGUGCGGCG [#1 Same State - Theophylline B Attempt #19 (HarryS)]”, the “apparent KD of MS2 coat protein” value by setting is: (input ligand: arginine 13.2 mM) 15 nM; (input ligand: none) 213 nM; under setting [1], 331 nM; under setting [2], 475 nM; under setting [3], 110 nM.
As for “UACAUGAGGAUCACCCAUGUAAGGUGAGAUACCAGUGAUAUGCUACACCCUUGGCAGCUCACGGCUGACUAUCAGCACACAUGUA [Theo A SS t1]”, the “apparent KD of MS2 coat protein” value by setting is: (input ligand: arginine 13.2 mM) 28.2 nM; under setting [1], 34.4 nM; under setting [3], 26.8 nM.
For “GGAGUAGGAAACUAUUCCAAUCCUCGUGAACGAGGACCGGUACGGCCGCCACUCGAUAAAUAAAUACAUGAGGAUCACCCAUGUU [Ex Tryptophan A 23]”, the “apparent KD of MS2 coat protein” value (input ligand: arginine 13.2 mM) was 38 nM, the “apparent KD of MS2 coat protein” value under setting [1] amounted to 71.4 nM and the “apparent KD of MS2 coat protein” value under setting [2] was 82.1 nM.
Take “AAUAUAUAUCACGAACUGUGGUGUAUGUUCCGAGGACCGGUACGGCCGCCACUCGCGUGGUUCCACAUGAGGAUCACCCAUGUUG [XTryp A #8]”: the “apparent KD of MS2 coat protein” value was found to be 17.3 nM (input ligand: arginine 13.2 mM); 16.8 nM (input ligand: none); 29.4 nM under setting [1]; 23.2 nM under setting [2]; 22.5 nM under setting [3].
Consider “AACGUGAACGUGGUAUACCCGUGUGCCGAAGGAGCGCCCGUAAGGGCAGGUAGGUCGCGGUCGACAUGAGGAUCACCCAUGUUUG”, for which the “apparent KD of MS2 coat protein” value came out at 39.5 nM (input ligand: arginine 13.2 mM); 74.6 nM (input ligand: none); 84.2 nM under setting [1]; 106 nM under setting [2]; 81.6 nM under setting [3].
The matching figures for “AUACGUAACAGAAGGAGCGCACCGACAUGAGGAUCACCCAUGUGGGAUGGGACUCUUUUGGUGCAGGUAGGUCGCUGUCACGCAU [Beatattian]”: 23.7 nM, 41.4 nM, 99.4 nM, 61.2 nM and 40.3 nM.
For “AGCUCGCGAAAGCGAGCAACAUGAUCCGAAGGAGCGCGCGAAAGCGCAGGUAGGUCGCGGACAUGAGGAUCACCCAUGUCUCCUU [MAT - Exclusion Arginine A - Mod of Eli - D14]”, in that order: 41 nM, 66.2 nM, 57.3 nM, 63.2 nM and 62.2 nM.
The matching figures for “GCCAAAGGCUACAUGAGGAUCACCCAUGUACGAGGACCGGUACGGCCGCCACUCGUACGGCCUCCUACUGGACGGGAAACCGUCG [ETA NP+V+V2 #28]”: 13.1 nM, 20.6 nM, 34.1 nM, 28 nM and 33.2 nM.
On to “AUCGUACCUGGUGAUACCAGCAAUUGCUCGUGACAUGAGGAUCACCCAUGUGGCCAGUGAUGCCCUUGGCAGCAUGGUCGGUGCA [Same State - Theophylline B (Freestyle 24)]”, for which the “apparent KD of MS2 coat protein” value runs as follows: (input ligand: arginine 13.2 mM) 72.4 nM; under setting [1], 167 nM; under setting [3], 122 nM.
With “GCAUCCUAGUCGGCCGCCACUGCAUGUAGAUACCUGCUACAUGAACAUGAGGAUCACCCAUGUAGCAGGACCGGGACUAGGAUGC [(Trp1)-(MT)''-(MT)'-(Ms2)-(Trp2)_Design1]”, the “apparent KD of MS2 coat protein” value came out at 47.4 nM (input ligand: arginine 13.2 mM); 58.8 nM (input ligand: none); 63.6 nM under setting [1]; 69.4 nM under setting [2]; 15.5 nM under setting [3].
In the case of “CGGUUUGUGAUGGAUACCAGCAGAGAAAAUGUUUAUCCUAACAUGAGGAUCACCCAUGUGUGCCCUUGGCAGCUGUUGUGGGCUG [8.W]”, the “apparent KD of MS2 coat protein” value came to 46 nM (input ligand: arginine 13.2 mM), 72.6 nM under setting [1] and 49.7 nM under setting [3].
For “UGGUUUGUGAUGGAUACCAGCAGAGAAAACGUUUAUCCUAACAUGAGGAUCACCCAUGUAUGCCCUUGGCAGCUGUUGUGGGCUA [8.S]”, in that order: 27.5 nM, 37.4 nM and 28.8 nM.
As for “GUAUUCAUGACGGCCGCCACUGCAAGCCUCCUCAUGGCAGAUUGACAUGAGGAUCACCCAUGUCUCAGGACCGGGUCUGGCAUCC [theeternabot_sameState_MS2_Trp_B_43]”, the “apparent KD of MS2 coat protein” value by setting is: (input ligand: arginine 13.2 mM) 65.8 nM; under setting [1], 244 nM; under setting [2], 346 nM.
With “AAACGUUGCUCAGAUACCAGACAUGAGGAUCACCCAUGUACCGAGGUACCCGAAAGGAAUGUCCCUUGGCAGCUGAGCAACGAAA [MAT - Exclusion Theophlline B - Mod of Eli - D23]”, the “apparent KD of MS2 coat protein” value (input ligand: arginine 13.2 mM) turned out to be 14.6 nM, the “apparent KD of MS2 coat protein” value under setting [1] worked out at 19 nM and the “apparent KD of MS2 coat protein” value under setting [3] was 10.2 nM.
